We go through three molecules from PMC1618809 (Molecular Microbiology, 2006).

Series [1] has as its target T1, PfTrx-Px2Mut2 (Phe139Ala140 replaced by ValSer) (Plasmodium falciparum) (UniProt Q8I5Q6).
T1 sequence: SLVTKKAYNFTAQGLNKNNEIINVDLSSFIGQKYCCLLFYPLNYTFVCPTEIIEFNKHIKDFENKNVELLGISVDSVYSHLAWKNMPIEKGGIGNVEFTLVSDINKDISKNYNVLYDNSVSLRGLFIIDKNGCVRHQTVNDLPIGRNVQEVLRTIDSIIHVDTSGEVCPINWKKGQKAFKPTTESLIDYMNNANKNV

For series [2], the target named is T2, PfTrx-Px2Mut1 (Asn62Tyr63 replaced by AspPhe) (Plasmodium falciparum) (UniProt Q8I5Q6).
T2 sequence: T1 sequence with N43D, Y44F, V120F, S121A

Series [3] concerns the molecule itself. The experiment in a line: AUC.

Positions count from the first letter of the chain named.

B1: Plasmodium falciparum thioredoxin 2 (PfTrx2), construct PfTrx2-S3 lacking the first 47 amino acids (domain or fragment)
chain: MFKKVPRLQQNGSNIINGVNMKNTVIVLYFFAKWCQACTMQSTEMDKLQKYYGKRIYLLKVDLDKNESLARKFSVKSLPTIILLKNKTMLARKDHFVSSNDLIALIKKHL
As for B1, in series [1], the KM^app of PfTrx-Px2Mut2 for Trx2; coupled peroxidase assay was 12.1 µM. Moreover, the KM^app of PfTrx-Px2Mut1 for Trx2; coupled peroxidase assay in series [2] was 7.7 µM.

B2: Plasmodium falciparum thioredoxin 1 (PfTrx1), cytosolic thioredoxin (natural protein)
chain: MVKIVTSQAEFDSIISQNELVIVDFFAEWCGPCKRIAPFYEECSKTYTKMVFIKVDVDEVSEVTEKENITSMPTFKVYKNGSSVDTLLGANDSALKQLIEKYAA
Consider B2, for which, in series [1], the KM^app of PfTrx-Px2Mut2 for Trx1; coupled peroxidase assay turned out to be 78.8 µM. The KM^app of PfTrx-Px2Mut1 for Trx1; coupled peroxidase assay in series [2] was 86.2 µM.

B3: Plasmodium falciparum mitochondrial peroxiredoxin (PfTrx-Px2), recombinant protein from construct pftrx-px2-2 lacking the first 19 amino acids (enzyme, UniProt Q8I5Q6 20-216, looked up)
chain: T1 sequence with V120F, S121A
As a reminder, the stoichiometry N is the number of molecules, sites or subunits per partner or assembly. Turning to B3, in series [3], the “stoichiometry N” value came out at 10.
